No end group written: not given here.
B1: USP5 (mouse, endogenous, from brain, DRG or dorsal horn lysate) (enzyme, UniProt P56399 2-858, looked up)
chain: AELSEEALLSVLPTIRVPKAGDRVHKDECAFSFDTPESEGGLYICMNTFLGFGKQYVERHFNKTGQRVYLHLRRTRRPKEEDTSAGTGDPPRKKPTRLAIGVEGGFDLTEDKFEFDEDVKIVILPDYLEIARDGLGGLPDIVRDRVTSAVEALLSADSASRKQEVQAWDGEVRQVSKHAFNLKQLDNPARIPPCGWKCSKCDMRENLWLNLTDGSILCGRRYFDGSGGNNHAVEHYRETGYPLAVKLGTITPDGADVYSYDEDDMVLDPSLAEHLSHFGIDMLKMQKTDKTMTELEIDMNQRIGEWELIQESGVPLKPLFGPGYTGIRNLGNSCYLNSVVQVLFSIPDFQRKYVDKLEKIFQNAPTDPTQDFSTQVAKLGHGLLSGEYSKPALESGDGEQVPEQKEVQDGIAPRMFKALIGKGHPEFSTNRQQDAQEFFLHLINMVERNCRSSENPNEVFRFLVEEKIKCLATEKVKYTQRVDYIMQLPVPMDAALNKEELLEYEEKKRQAEEEKVPLPELVRAQVPFSSCLEAYGAPEQVDDFWSTALQAKSVAVKTTRFASFPDYLVIQIKKFTFGLDWVPKKLDVSIEMPEELDISQLRGTGLQPGEEELPDIAPPLVTPDEPKGSLGFYGNEDEDSFCSPHFSSPTSPMLDESVIIQLVEMGFPMDACRKAVYYTGNSGAEAAMNWVMSHMDDPDFANPLILPGSSGPGSTSAAADPPPEDCVTTIVSMGFSRDQALKALRATNNSLERAVDWIFSHIDDLDAEAAMDISEGRSAAESISESVPVGPKVRDGPGKYQLFAFISHMGTSTMCGHYVCHIKKEGRWVIYNDQKVCASEKPPKDLGYIYFYQRVVS

Tests used:
[1] = target: T1, recombinant human USP5 short isoform (human, UniProt P45974-2 1-835); assay: in vitro binding assay of purified recombinant USP5 to biotinylated peptide, western blot
T1 construct: Purified recombinant protein bought from EnzoLifeSciences; also called hUSP5 short; USP5 short isoform (835 amino acids)
T1 sequence (looked up): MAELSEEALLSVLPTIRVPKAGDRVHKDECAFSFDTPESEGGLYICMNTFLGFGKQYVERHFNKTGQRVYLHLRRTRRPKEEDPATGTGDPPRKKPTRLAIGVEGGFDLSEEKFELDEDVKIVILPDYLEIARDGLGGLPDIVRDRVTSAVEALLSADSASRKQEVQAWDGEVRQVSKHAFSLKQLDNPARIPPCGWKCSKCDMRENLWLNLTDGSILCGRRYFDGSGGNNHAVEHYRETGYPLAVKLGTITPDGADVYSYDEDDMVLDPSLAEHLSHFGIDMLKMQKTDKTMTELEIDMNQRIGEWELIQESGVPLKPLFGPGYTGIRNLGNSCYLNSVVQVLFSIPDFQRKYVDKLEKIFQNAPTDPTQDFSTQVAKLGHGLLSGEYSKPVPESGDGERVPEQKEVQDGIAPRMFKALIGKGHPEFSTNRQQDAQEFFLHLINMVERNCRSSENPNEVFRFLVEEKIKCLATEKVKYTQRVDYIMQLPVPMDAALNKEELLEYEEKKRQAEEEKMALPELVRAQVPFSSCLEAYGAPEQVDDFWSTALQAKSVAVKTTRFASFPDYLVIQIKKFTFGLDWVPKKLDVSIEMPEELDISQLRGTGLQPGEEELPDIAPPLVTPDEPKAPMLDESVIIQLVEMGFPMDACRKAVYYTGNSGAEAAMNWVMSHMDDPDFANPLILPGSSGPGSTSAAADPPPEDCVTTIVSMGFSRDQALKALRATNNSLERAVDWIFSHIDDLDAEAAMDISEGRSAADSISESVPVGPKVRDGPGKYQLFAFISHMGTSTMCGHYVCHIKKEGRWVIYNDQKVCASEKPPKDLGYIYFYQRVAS

[2] = target: T2, recombinant human USP5 long isoform (human, UniProt P45974 1-858); assay: as above
T2 construct: Purified recombinant protein bought from EnzoLifeSciences; also called hUSP5 long; USP5 long isoform (858 amino acids)
T2 sequence: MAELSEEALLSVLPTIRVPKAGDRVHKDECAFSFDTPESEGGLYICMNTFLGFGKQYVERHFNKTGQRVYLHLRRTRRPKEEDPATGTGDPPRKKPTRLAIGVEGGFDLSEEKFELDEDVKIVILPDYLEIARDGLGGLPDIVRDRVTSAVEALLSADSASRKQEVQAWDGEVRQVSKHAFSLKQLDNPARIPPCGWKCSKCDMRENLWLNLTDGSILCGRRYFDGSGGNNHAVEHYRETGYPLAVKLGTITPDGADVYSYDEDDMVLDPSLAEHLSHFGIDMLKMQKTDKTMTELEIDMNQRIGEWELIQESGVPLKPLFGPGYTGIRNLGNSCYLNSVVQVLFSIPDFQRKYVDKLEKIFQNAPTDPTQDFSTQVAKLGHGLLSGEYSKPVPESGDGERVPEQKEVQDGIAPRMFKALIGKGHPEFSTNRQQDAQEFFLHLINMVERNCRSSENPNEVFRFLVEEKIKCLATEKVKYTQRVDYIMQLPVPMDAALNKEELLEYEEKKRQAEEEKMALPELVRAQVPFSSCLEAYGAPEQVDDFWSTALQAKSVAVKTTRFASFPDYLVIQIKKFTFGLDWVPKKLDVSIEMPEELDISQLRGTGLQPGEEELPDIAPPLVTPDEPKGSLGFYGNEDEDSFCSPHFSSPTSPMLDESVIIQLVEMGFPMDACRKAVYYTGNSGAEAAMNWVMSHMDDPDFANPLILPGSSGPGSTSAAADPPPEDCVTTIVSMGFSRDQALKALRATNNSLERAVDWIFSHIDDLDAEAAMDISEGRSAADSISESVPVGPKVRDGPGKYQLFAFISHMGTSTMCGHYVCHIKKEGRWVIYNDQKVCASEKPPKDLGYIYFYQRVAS

[3] = target: B1; assay: affinity precipitation from mouse brain lysate with biotinylated peptide, western blot for USP5
[4] = target: T3, WWP1 (mouse, endogenous, from DRG lysate) (mouse, UniProt Q8BZZ3 1-918); assay: affinity precipitation from mouse DRG lysate with biotinylated peptide, western blot for WWP1
T3 construct: also called HECT E3 ligase WWP1

[5] = target: Cav3.2 channel (mouse, endogenous full-length channel from DRG, brain or dorsal horn) (mouse, UniProt O88427 1-2365, limits assumed); assay: cell-based or functional assay
Chain of Cav3.2 channel (mouse, endogenous full-length channel from DRG, brain or dorsal horn) (O88427 whole entry): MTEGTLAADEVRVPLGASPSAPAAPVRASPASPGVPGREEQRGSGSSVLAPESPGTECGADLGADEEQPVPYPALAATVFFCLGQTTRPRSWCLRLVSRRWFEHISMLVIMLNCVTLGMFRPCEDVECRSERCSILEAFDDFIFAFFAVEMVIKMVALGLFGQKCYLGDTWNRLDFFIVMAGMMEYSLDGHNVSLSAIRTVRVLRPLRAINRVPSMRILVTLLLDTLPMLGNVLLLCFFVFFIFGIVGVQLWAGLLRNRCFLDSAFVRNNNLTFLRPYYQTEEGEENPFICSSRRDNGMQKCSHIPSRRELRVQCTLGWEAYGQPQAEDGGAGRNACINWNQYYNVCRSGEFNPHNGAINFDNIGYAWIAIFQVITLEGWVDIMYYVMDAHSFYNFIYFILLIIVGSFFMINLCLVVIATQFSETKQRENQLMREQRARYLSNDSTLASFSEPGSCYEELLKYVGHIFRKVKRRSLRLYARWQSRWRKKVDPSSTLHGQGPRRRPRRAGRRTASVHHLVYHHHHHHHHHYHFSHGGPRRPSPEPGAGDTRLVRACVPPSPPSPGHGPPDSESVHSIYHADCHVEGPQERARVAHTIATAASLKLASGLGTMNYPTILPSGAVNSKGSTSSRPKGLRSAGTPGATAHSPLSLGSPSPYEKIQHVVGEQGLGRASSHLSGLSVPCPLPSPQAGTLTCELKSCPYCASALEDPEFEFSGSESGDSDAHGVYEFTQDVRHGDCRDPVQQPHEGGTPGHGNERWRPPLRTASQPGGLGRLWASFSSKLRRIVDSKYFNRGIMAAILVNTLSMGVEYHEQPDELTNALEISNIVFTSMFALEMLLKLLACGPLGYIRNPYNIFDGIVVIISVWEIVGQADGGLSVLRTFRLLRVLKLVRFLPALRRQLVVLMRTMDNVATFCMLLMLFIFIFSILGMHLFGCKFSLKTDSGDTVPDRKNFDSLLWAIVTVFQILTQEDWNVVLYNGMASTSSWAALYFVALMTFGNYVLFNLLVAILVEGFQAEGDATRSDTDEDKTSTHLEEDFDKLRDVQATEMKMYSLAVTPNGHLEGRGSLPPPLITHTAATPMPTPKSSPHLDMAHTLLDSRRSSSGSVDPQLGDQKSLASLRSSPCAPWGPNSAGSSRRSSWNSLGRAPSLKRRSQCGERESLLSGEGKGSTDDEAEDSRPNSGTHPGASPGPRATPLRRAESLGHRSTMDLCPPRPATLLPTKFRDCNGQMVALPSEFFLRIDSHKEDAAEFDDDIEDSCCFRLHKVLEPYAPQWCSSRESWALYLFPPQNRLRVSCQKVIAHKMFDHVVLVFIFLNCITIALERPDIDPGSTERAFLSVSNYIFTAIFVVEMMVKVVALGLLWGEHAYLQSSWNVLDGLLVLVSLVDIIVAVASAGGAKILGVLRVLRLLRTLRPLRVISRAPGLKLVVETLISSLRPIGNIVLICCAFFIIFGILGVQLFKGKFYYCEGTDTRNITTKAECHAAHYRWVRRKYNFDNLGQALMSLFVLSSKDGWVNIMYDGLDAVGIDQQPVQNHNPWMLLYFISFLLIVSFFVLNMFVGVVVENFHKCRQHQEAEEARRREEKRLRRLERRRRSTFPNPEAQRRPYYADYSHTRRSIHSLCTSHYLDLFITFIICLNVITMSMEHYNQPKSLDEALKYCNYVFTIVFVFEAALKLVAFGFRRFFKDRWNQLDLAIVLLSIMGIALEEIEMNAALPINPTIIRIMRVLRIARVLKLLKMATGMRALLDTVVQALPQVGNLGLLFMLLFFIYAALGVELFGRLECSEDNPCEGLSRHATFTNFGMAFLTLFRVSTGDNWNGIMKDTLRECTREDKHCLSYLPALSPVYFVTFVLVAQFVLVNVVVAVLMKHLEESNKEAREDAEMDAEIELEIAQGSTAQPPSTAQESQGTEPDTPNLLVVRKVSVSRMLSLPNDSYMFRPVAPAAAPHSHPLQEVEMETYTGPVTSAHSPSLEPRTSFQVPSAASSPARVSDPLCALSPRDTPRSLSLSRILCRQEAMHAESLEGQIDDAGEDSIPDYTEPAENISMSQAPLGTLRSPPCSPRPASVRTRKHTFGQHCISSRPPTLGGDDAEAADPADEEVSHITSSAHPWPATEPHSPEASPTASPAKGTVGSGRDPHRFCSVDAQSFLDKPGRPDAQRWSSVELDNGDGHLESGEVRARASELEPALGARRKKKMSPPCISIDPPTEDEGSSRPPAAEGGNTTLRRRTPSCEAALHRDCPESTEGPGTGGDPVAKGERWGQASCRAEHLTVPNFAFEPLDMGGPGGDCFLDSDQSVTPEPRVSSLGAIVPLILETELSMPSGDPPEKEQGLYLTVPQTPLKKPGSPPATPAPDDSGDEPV

[6] = target: B1; assay: affinity precipitation from mouse brain lysate with biotinylated Tat peptide (25 µg), western blot for USP5
[7] = target: B1; assay: in vitro competition by affinity precipitation from mouse brain lysate; competitor 50 µg against biotin-Tat peptide 25 µg

| Binder | binding result [1] | binding result [2] | binding result [3] | binding result [4] | other results |
| --- | --- | --- | --- | --- | --- |
| ENFHKCRQHQEAEEARRREEKRLRRLERRRRKAQRRPYYADYSPTRR-biotin (peptide, UniProt O95180-2 1556-1602, looked up, not fully specified, Synthetic peptide containing the PY motif; also called long III-IV linker) [human biotin-Cav3.2 1556-1602 III-IV linker peptide] | binds | binds | binds | binds | – |
| B1 | – | – | – | – | channel ubiquitination of Cav3.2 immunoprecipitates from CAD cells transfected with USP5-shRNA against USP15-shRNA [5]: ~5 fold |
| YGRKKRRQRRREARRREEKRLRRLERRRRKAQ (not fully specified (N-terminus); also: biotin, position not given here, also called biotinylated Cav3.21569-1589 III-IV linker peptide; Tat-Cav3.21569-1589 III-IV linker peptide) [biotin-Tat-3.2 III-IV 1569-1589 linker peptide] | – | – | – | – | binding result [6]: binds |
| YGRKKRRQRRREARRREEKRLRRLERRRRKAQ (also called Tat-3.2-III-IV1569-1589 linker; Tat-3.2-III-IV) [Tat-Cav3.2 1569-1589 III-IV linker peptide (non-biotinylated)] | – | – | – | – | binding result [7]: binds |
| SNKEAREDAELDAEIELEMAQGPGS-biotin (peptide, UniProt O95180-2 1860-1884, looked up, not fully specified, Control peptide; also called hCav3.21860-1884 (CT); Cav3.2 C-terminus peptide) [human biotin-Cav3.2 1860-1884 C-terminus peptide] | no binding | no binding | no binding | – | – |
| EARRREEKRLRRLERRRR (peptide, UniProt O95180-2 1569-1586, looked up, also: biotin, position not given here, range 1569-1586; Synthetic peptide lacking the PY motif; also called hCav3.21569-1586; 18 amino acid short peptide lacking the PY motif) [human biotin-Cav3.2 1569-1586 short III-IV linker peptide] | – | – | – | binds | – |
